# Patent US8785391B2, “Compound and method for treatment of alzheimer's disease and familial dementia” (Alphabeta AB, priority 2010, dated 2014)
# B1: Bri2(90-236): recombinant protein of residues 90-236 of human Bri2 (SEQ ID NO: 2), encompassing the Brichos domain, expressed in E. coli (protein, listed as Homo sapiens)
# chain: GIKYIKDDVILNEPSADAPAALYQTIEENIKIFEEEEVEFISVPVPEFADSDPANIVHDFNKKLTAYLDLNLDKCYVIPLNTSIVMPPRNLLELLINIKAGTYLPQSYLIHEHMVITDRIENIDHLGFFIYRLCHDKETYKLQRRET
# Key:
# Aβ1-40 [1] = biological target: T1, Aβ1-40 (Homo sapiens, UniProt P05067); experiment: SDS-PAGE of supernatants, soluble Aβ1-40; type: biochemical; conditions: co-incubation with 25 μM Aβ1-40, 37° C., 3 weeks incubation, centrifugation at 3300 g
# T1 construct: made in house; host or cells: E. coli
# T1 sequence (P05067 672-711): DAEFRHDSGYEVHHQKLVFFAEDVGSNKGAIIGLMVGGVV
# Procedure: (§1) […] Aβ1-40 was dissolved in 100% DMSO to 250 μM stock solution, which was diluted to working concentrations. For Thioflavin T (ThT) fluorescence measurements, 10 μl aliquots were removed at different time points, 10 μM ThT (Aldrich) added, and fluorescence was measured with a […] fluorescence plate reader (GE Healthcare), emission wavelength is 480 nm, excitation wavelength 440 nm. Measurements of ThT were done in duplicates. For analysis of soluble Aβ1-40 and ultrastructure of Aβ aggregates, aliquots were removed and centrifuged at 3300 g for 9 min. The supernatant was analyzed by SDS-PAGE and pellets were resuspended in 200 μl distilled water, 2 μl of the resuspension was added onto 200 mesh copper electron microscopy grids, stained with 2% uranyl acetate for 30 s, then left to dry at 20° C. A Hitachi H 7100 microscope operated at 75 kV was used for examination and photographing.
# Aβ1-40 [2] = biological target: T1, Aβ1-40; experiment: Electron microscopy of Aβ1-40 pellets; type: biochemical; conditions: co-incubation with Aβ1-40, 1:1 molar ratio, 5 days
# Procedure: as §1
# Aβ1-40 [3] = biological target: T1, Aβ1-40; experiment: Thioflavin T fluorescence of Aβ1-40 aggregation (Example 3); type: biochemical; conditions: 25 μM Aβ1-40, Aβ/Bri2(90-236) molar ratios 1:1, 2:1, 10:1, 37° C., pH 7.0, 24 h period studied
# Procedure: 25 μM of Aβ1-40 (SEQ ID NO: 11) was incubated with or without recombinant Bri2(90-236) (SEQ ID NO: 2) in 20 mM phosphate buffer, pH 7.0 at 37° C. for 48 h, with 200 rpm agitation, at Aβ/Bri2(90-236) molar ratios of 1:1, 2:1, or 10:1. Aβ1-40 was dissolved in 100% DMSO to 250 μM stock solution, which was diluted to working concentrations. For Thioflavin T (ThT) fluorescence measurements, 10 μl aliquots were removed at different time points, 10 μM ThT (Aldrich) added, and fluorescence was measured with a […] fluorescence plate reader (GE Healthcare), emission wavelength is 480 nm, excitation wavelength 440 nm. Measurements of ThT were done in duplicates.
# Aβ1-40 [4] = biological target: T1, Aβ1-40; experiment: ESI-MS binding of Bri2(90-236) to Aβ1-40
# Procedure: Prior to electrospray ionization mass spectrometry (ESI-MS), purified Bri2(90-236) (SEQ ID NO: 2) was rebuffered into 10 mM ammonium acetate, pH 7.0, using spin columns with a 3 kDa cut-off limit (Nanosep, Pall Corp., East Hills, N.Y., USA). Protein and peptides were mixed at 22° C. directly before analysis at a final protein concentration of 20 μM and a final peptide concentration of 50 μM. Data was acquired using a QTOF Ultima API mass spectrometer (Waters, Milford, Mass., USA) equipped with a Z-spray source operated in the positive-ion mode. Samples were introduced via nano-electrospray using metal-plated borosilicate glass capillary needles (Proxeon, Denmark). The source temperature was 80° C., the capillary voltage 1.7 kV, and the cone and RF lens 1 potentials were 100 and 38 V, respectively. […]
# (§2) ESI-MS binding experiments were conducted to investigate whether Bri2(90-236) can bind the peptides ABri23 and Aβ1-40. For this purpose, Bri2(90-236) was mixed with ABri23, Aβ1-40, or an equimolar mixture of ABri23 and Aβ1-40, to a final concentration of 20 μM Bri2(90-236) and 50 μM of each peptide, and analyzed by ESI-MS. Mass spectra were recorded to investigate the presence and stoichiometry of protein-peptide complexes in the gas phase.
# Aβ1-40 [5] = biological target: T1, Aβ1-40; experiment: ThT aggregation of Aβ1-40, Bri2(90-236) added at different time points; type: biochemical
# Procedure: Aggregation of 8 μM Aβ1-40 was monitored by recording the ThT fluorescence intensity as a function of time in 20 mM Na-phosphate, 200 μM EDTA, 20 μM ThT, 0.02% NaN3, 37° C. with 100 rpm shaking. 800 nM Bri2(90-236) was added from a concentrated stock before the start of the experiment or at different time points after starting the experiment ranging from 0.3 to 11.2 hours.
# ABri23 = biological target: T2, ABri23 (Homo sapiens, UniProt Q9Y287); experiment: ESI-MS binding of Bri2(90-236) to ABri23
# T2 construct: purchased Bachem (Bubendorf, Switzerland)
# Procedure: Prior to electrospray ionization mass spectrometry (ESI-MS), purified Bri2(90-236) (SEQ ID NO: 2) was rebuffered into 10 mM ammonium acetate, pH 7.0, using spin columns with a 3 kDa cut-off limit (Nanosep, Pall Corp., East Hills, N.Y., USA). Protein and peptides were mixed at 22° C. directly before analysis at a final protein concentration of 20 μM and a final peptide concentration of 50 μM. Data was acquired using a QTOF Ultima API mass spectrometer (Waters, Milford, Mass., USA) equipped with a Z-spray source operated in the positive-ion mode. Samples were introduced via nano-electrospray using metal-plated borosilicate glass capillary needles (Proxeon, Denmark). The source temperature was 80° C., the capillary voltage 1.7 kV, and the cone and RF lens 1 potentials were 100 and 38 V, respectively. The mass spectrometer was operated in single-reflector mode at a resolution of 10 000 (full width half maximum definition), and the mass scale was calibrated using myoglobin. Scans were acquired at a rate of 1 scan per 2 sec between 500 and 4000 m/z. The collision gas was argon at 5.2×10^−5 mbar. Mass spectra were smoothed using the Waters MassLynx software.
# All peptides, with the exception of KFFEYNGKKFFE (SEQ ID NO: 15), ABri23 (SEQ ID NO: 4) and Aβ1-40 (SEQ ID NO: 11), were purchased from Thermo Electron (Darmstadt, Germany). KFFEYNGKKFFE was purchased from Interactiva (Ulm, Germany) and Aβ1-40 and disulfide-linked ABri23 were from Bachem (Bubendorf, Switzerland).
# Peptides, except for KFFEYNGKKFFE, ABri23 and Aβ1-40, were acetylated at the N-terminus and amidated at the C-terminus. […]
# as §2
molecule,measurement,setting,value
B1,Aβ1-40 in solution (SDS-PAGE of supernatants),Aβ1-40 [1],staying in solution
same,amount of Aβ1-40 amyloid-like fibrils in pellets (electron microscopy),Aβ1-40 [2],lower amounts of fibrils
same,ThT positive aggregates of Aβ1-40,Aβ1-40 [3],no ThT positive aggregates were found
same,Bri2(90-236)/Aβ1-40 complex in competition experiment,Aβ1-40 [4]; 20 μM Bri2(90-236) with 50 μM Aβ1-40 and 50 μM ABri23 (equimolar),only minor signals
same,amount of Bri2(90-236)/Aβ1-40 complexes observed,"Aβ1-40 [4]; 20 μM Bri2(90-236), 50 μM freshly dissolved Aβ1-40 (2.5 fold excess)",Only small amounts
same,effect on Aβ1-40 aggregation process,"Aβ1-40 [5]; 8 μM Aβ1-40, 800 nM Bri2(90-236) added anywhere during the lag time",can be delayed
same,effect on Aβ1-40 aggregation process,"Aβ1-40 [5]; 8 μM Aβ1-40, 800 nM Bri2(90-236) added at the end of the transition",no effect is seen
same,effect on Aβ1-40 aggregation process,"Aβ1-40 [5]; 8 μM Aβ1-40, 800 nM Bri2(90-236) added close to the mid point of the transition",reduce its speed and progress at lower rate
same,effect on Aβ1-40 aggregation process,"Aβ1-40 [5]; 8 μM Aβ1-40, 800 nM Bri2(90-236) added during the early part of the sigmoidal transition",appears to halt with no further growth of the ThT positive aggregates
same,Bri2(90-236)/ABri23 complex in competition experiment,"ABri23; 20 μM Bri2(90-236) with 50 μM Aβ1-40 and 50 μM ABri23 (equimolar), ESI-MS",nearly all detectable recombinant Bri2(90-236) is complexed with ABri23
same,saturation of Bri2(90-236) with ABri23 (complex formation),"ABri23; 20 μM Bri2(90-236), 50 μM oxidized ABri23 (2.5-fold molar excess), ESI-MS conditions",near-complete saturation
same,binding preference ABri23 versus Aβ1-40,"ABri23; competition, both peptides at equimolar amounts, ESI-MS",preferentially binds ABri23
